# B1: 14-3-3 protein zeta/delta (Homo sapiens), P63104 (parent)
# chain: MDKNELVQKAKLAEQAERYDDMAACMKSVTEQGAELSNEERNLLSVAYKNVVGARRSSWRVVSSIEQKTEGAEKKQQMAREYREKIETELRDICNDVLSLLEKFLIPNASQAESKVFYLKMKGDYYRYLAEVAAGDDKKGIVDQSQQAYQEAFEISKKEMQPTHPIRLGLALNFSVFYYEILNSPEKACSLAKTAFDEAIAELDTLSEESYKDSTLIMQLLRDNLTLWTSDTQGDEAEAGEGGEN
# Variants of: B1
# Conditions: with vime_chlae VIM
row,effect of a mutation on the interaction,Variant
1,decreasing interaction,MDKNKLVQKAKQQRQAERYDDMAACMKSVTEQGAELSNEERNLLSVAYKNVVGARRSSWRVVSSIEQKTEGAEKKQQMAREQRENIQTELRDICNDVLSLLEKFLIPNASQAESKVFYLKMKGDYYRYLAEVAAGDDKKGIVDQSQQAYQEAFEISKKEMQPTHPIRLGLALNFSVFYYEILNSPEKACSLAKTAFDEAIAELDTLSEESYKDSTLIMQLLRDNLTLWTSDTQGDEAEAGEGGEN [E5K;L12Q;A13Q;E14R;Y82Q;K85N;E87Q]

# Source: IntAct's records for PubMed 10887173
